According to PMC4609183 (The EMBO Journal, 2015):

B1: parkin Ubl domain (domain or fragment, human, UniProt O60260 1-76, looked up)
chain: MIVFVRFNSSHGFPVEVDSDTSIFQLKEVVAKRQGVPADQLRVIFAGKELRNDWTVQNCDLDQQSIVHIVQRPWRK
B2: R0RBR parkin (residues 141–465, lacking Ubl domain and linker) (domain or fragment, human, UniProt O60260 141-465, looked up)
chain: SIYNSFYVYCKGPCQRVQPGKLRVQCSTCRQATLTLTQGPSCWDDVLIPNRMSGECQSPHCPGTSAEFFFKCGAHPTSDKETSVALHLIATNSRNITCITCTDVRSPVLVFQCNSRHVICLDCFHLYCVTRLNDRQFVHDPQLGYSLPCVAGCPNSLIKELHHFRILGEEQYNRYQQYGAEECVLQMGGVLCPRPGCGAGLLPEPDQRKVTCEGGNGLGCGFAFCRECKEAYHEGECSAVFEASGTTTQAYRVDERAAEQARWEAASKETIKKTTKPCPRCHVPVEKNGGCMHMKCPQPQCRLEWCWNCGCEWNRVCMGDHWFDV

Columns and labels:
Experiment in all cases: ITC; 50 μM R0RBR, full-length parkin or phosphoparkin titrated with Ub, Ubl or their variants; 25°C; 50 mM HEPES, 50 mM NaCl, 250 μM TCEP pH 7.5 or 50 mM HEPES, 150 mM NaCl, 0.5 mM TCEP pH 8.0; single-site model
Details in all cases: both partners purified
[1] = target: B2
ubiquitin = ubiquitin (UniProt P0CG47 1-76)
phosphoubiquitin = phosphoubiquitin (UniProt P0CG47 1-76, phosphoserine at 65)

Binder	Kd [1] [µM]	dH [1] [kcal/mol]	stoichiometry N [1]	Kd (ubiquitin) [µM]	Kd (phosphoubiquitin) [µM]
B1	3.8 ± 1.3	-10.5 ± 0.717	0.98		
B2				67 ± 1	0.016 ± 0.002
